The results in this text go back to patent US20160185857A1 (published 2016).

This test addresses T1, recombinant soluble human FcγRIIB (UniProt P31994 43-217).
T1 chain: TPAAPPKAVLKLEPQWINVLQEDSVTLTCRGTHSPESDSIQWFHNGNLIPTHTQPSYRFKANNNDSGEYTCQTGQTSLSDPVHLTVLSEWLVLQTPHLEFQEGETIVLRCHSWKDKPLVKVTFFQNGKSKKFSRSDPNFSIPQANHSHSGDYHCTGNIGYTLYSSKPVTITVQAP
Kind of test: SPR. Background: In SPR one partner is held on a chip, and binding of the other changes the refractive index at the surface.

B1: chGB3_N297A (chimeric GB3, prior art antibody of WO 2005/051999, N297A format) (antibody, V domains shown)
VH: VQLQQSGPELVKPGASVKISCKASGYTFTDYYIYWVKQWPGQGLEWIGWIFPGTGNTYYNENFKDKATLTIDRSSSTAYMLLGSLTSEDSAVYFCYGPFAYWGQ
VL: RIQLTQSPSSLSASLGERVSLTCRASQEISGYLSWLQQKPDGTIKRLIYATSALDSGVPKRFSGSGSGSNYSLTISSLESEDFADYYCLQYANYPYTFGGGTKL
Consider B1, for which the koff – broadly, the first-order rate constant of dissociation – stood at 0.01 s⁻¹.

B2: ch8A6_wt (antibody)
chain 1: EVQLVESGGDLVQPGRSLRLSCAASGFTFSDYYMAWVRQAPKKGLEWVASISSDGSNTYYGDSVKGRFTISRDNTRSNLYLQMNSLRSEDTATYYCARPGDYWGQGVMVTVSS
chain 2: NIVMTQSPTSMFISVGDRVTMNCKASQNVGTYVDWFQQKTGQSPTLLIFGASNRYTGVPDRFTGSGSGTDFTLSISNMQAEDLAVYYCLQYNYHPYTFGPGTTLELKR
Regarding B2, the koff came out at 0.00049 s⁻¹.
